15 sequences from a protein production outcome set (Wang et al. 2014) can be followed below.

This data set can be described thus: label from the status in PepcDB records.
For “MKTEKFFTHPIGVFIAAIVATFLWGSAFPFIKLSYVELGIQPQEVGEQILFAGYRFFLSGFMLLLFFKVLGKDMSFKKGTGKQLIQIGLFQTFLQYICFYIGMSYSSGIEGAIISGTSSFFQILLAHFLYKDDALNMRKIIGVSIGFCGVVLVNMPSDGSLSFHFGIGSLLLLSAAMLYSYGNILAKEGSKTLDVGYMTAYQMMFGSIGLLCIGALQVGVMPFTFSLHALLMLIYLSFLSAAGFCIWNTIMKYNKVGKVSMYMFFIPVFGVLLSSMILGEAIHSFVLLGLACVAAGIIVVNRTPAKQKIEKEKQVA”, the protein production entry is listed as “failed”. The result for “MGMPAGPYLLTPPGVYAPQHDTDLLARALRREDIDTSTEVLDLGTGSGALAVHAARLGARVTAVDISRRAVLTARLNALLAGRRVTVRRGDLTAAVPGRSYDLVVSNPPYVPSPSARLPSRGAARAWDAGHDGRAFVDRICDTAPAALRAGGALLIVHSALCGTRPTLDRLAAAGLDASVTDRAFVPFGPVLRARRAWLRRQGLLTDENLEELVVIRAEHS” reads “failed”; that for “MRQKELETADWQRNLKIAWIGTFFTGASFSIVMPFMALYVEELGVKGAMVEWYAGLSVALSALASALVSPVWGHLADRYGRKPMMIRASMVMTFTMGGLAFVPNVFWMLFLRILNGLFAGYVPNATALIASQAPQQRSGYALGTLSTGLTAGVLIGPLLGGAISEAFGMRGTFLLVGLILFICCLLTIFGLREDFQLIEKVEIMSFSQVFAKIPSKSLLIGLFVTSMIIQISAQSIAPILALYIRYLGQSDNILFYSGLIVSAMGFSSLLSTPYLGRLGDRIGNHRLLLMGLFYSFLLYFLCGFAGSALQLGLLRFAYGFGVGALTPSVNSLLTKMTPKEGISRIFSLNQSFSYIGQVLGPFVGSAVATGLGYRWVFFVTAAIVFGNFVCSLIIFRKSLGVKNIGES”, “failed”.

As to “MSRVFVIGAAGKVGQRLIKKLGDGGHEVIALHRKEEQSVLIKAAGALPLLANLVEMDAAALSSAMAGSDVVVFTAGAGGAGIELTNAIDGEGLKTSVAAAELAGVRRFLLVSAFPEAARGTDTSAGFENYMRVKKHADVCLASSELDWVILRPGTLVDSAGSGQVRAGLAIPYGDIPRDDVAAFLAALVDQPEISRQIIELTEGTTPVELAIKALGTR”, the protein production entry was “failed”. The result for “MILAIDLGTSGAKAAIIDSAGAVHEQTFVPYSTTKLPNGGVEQDPMQWVSAARQAVTRLPRSYSVVSFTGQMQDLICLDRAGRPLGQALLYNDARAAAEAARLNTVVPEWKDITGNRQTATSTAAMWLRLMEQSD” reads “failed”. Under “PLTTHNMNSSTSNKVALNAAREGIVLLKNQGDLLPLDKQKVKKIAVVGTLAKYAPPTGFGSANVMASHYVSELSGLQQMAPNAKVEFIDGLSLDPSTSAWNTTDAAGNSVQGMKVEYFSNTNWSGDAAVTRTEQHVDLDWANDKNLPFESNTSTSDPYTTKGSTAGELNGDTSSTSIRYTGKITPTQSGEQVFKVRADGAVRLWVNGKKIIDNGDGKPLPGNSIPPTIPEFAKINLEAGQSYDVKLEYSRRAGYLSTMGGLVGVQLSSASLNAPQDLSGYDAVVVAVGNSNEYEGEGFDHSFDLPEFQNELIQNIAKVNPNTVVTMYGGTGLKMSDWIEQVPVALHAFYPGQNGGQALAEILFGKINPSGKLPISIERNIEDNPAYASFPKFDNQNTLAEMDYKDDLMLGYRGYEKKGIKPLYPFGYGL” stands “failed”; under “MARRNRGVTRRERPNLLITGTPGTGKSTTASALAEATNLRYICIGDLVKEKEFYHGWDNELECHFINEDSVIDELDDAMIEGGNIVDYHGCDFFPQRWFDRVVVLRTENSVLYDRLTNSKVLIVFSQPTKAGVIQEPSLVTTFNAKCIKSYSKKHMTVMMRKLSLNYKGEAMLAKTVFPRGLLVLRSFSSVASKTLLKVGDVLRETRVFSSEDIKAYAEVSHDWNPLHFDPESARKAGFENRLVHGMLVSSMFPRIISAHFPGAVYVSQSLHFRSPVYIGDEILGLVQAIALRETKNKYIVKFSTKCFKNHNELVVIDGEATAILPNLDMLQKSPSE”, “failed”; under “MIIMVTEVDVLVIGAGPAGSTAAKHAALGGADVLLIDKKSEIGAPKRCAEGVSIGGLESLGIEPNPRWITKKLDGVRMVSPNGTDVWLTSDKVELPEAGYILERKVFDKFMAMDAARAGSRIMVKTIATGMERTDDGYLVSAECMGEKFEIKARIVIAADGPESRVARWAGLNTATRPKDMESAAQFEMVGVEMEDNNCIEFYFGSVAPGGYALDIPEGDDIANVGLGVLSTETDKSAYEHLLEFVESCPATRNAQPVELNIGGDPVGGMPKKLVADSLMVVGDAAGQVNPLTGGGIISGMKGGMLAGQVAAAAVSEGDVTARRLGEYERLCREEIGDEISKYLKVKEYLLTLSDSELDSIAEAFQDVEFEKVSTTELVKKLIKVSPKALLKLGKLFLEHHHHHH”, “failed”.

On to “MLARAALILLFFGLLGDSGAGQGRDGNALFDRGRYVAAAETYRAGLDALDDTTGSVYTGLQNNLGLALHRQERLGAARAALRKARRAATTEAERVRVLFNAATVAAEMNDRTKALDRYRTVLLLDPTHEAARFNYEYLKRQAGGGAGSDPPTLEPSPFAQKLKERADALVARTQYTTAAALLRDGMQKDSTVRAYRDFVTRIEEIAQIARSDP”, for which the protein production result was “failed”.

As to “MLYFEDLRPGQLFLSAEHTLSEQEIIAFARQFDPQPFHTDPEAARQTFFNGLAASGWHTSSLSMRLVAESELGRAANGLIGMQIDKMRWPQPSRPGDTLQVEVEVLDKRRSSSQPGFGVVKVSWTTRNQRGETAMQLECAIWLQCRSKAEAAAPELAGAK”, the protein production result is given as “failed”. The result for “MAQRQPHSPNQTLISITNDTESSSSVVSNDNTNKGWSGDNSPGIEALCAIYITYAVIISVGILGNAILIKVFFKTKSMQTVPNIFITSLAFGDLLLLLTCVPVDATHYLAEGWLFGRIGCKVLSFIRLTSVGVSVFTLTILSADRYKAVVKPLERQPSNAILKTCVKAGCVWIVSMIFALPEAIFSNVYTFRDPNKNMTFESCTSYPVSKKLLQEIHSLLCFLVFYIIPLSIISVYYSLIARTLYKSTLNIPTEEQSHARKQIESRKRIARTVLVLVALFALCWLPNHLLYLYHSFTSQTYVDPSAMHFIFTIFSRVLAFSNSCVNPFALYWLSKSFQKHFKAQLFCCKAERPEPPVADTSLTTLAVMGTVPGTGSIQMSEISVTSFTGCSVKQAEDRF” reads “failed”; that for “MSNKRIGVVIVSYGHEQDVANLVDTFADQLKTGDRVVVVDNRKPWVLKDAVGERLEKHGAEIINHDNGGFAAGCNVGAAHIVDDVDLLFFLNPDTVIDDPTLFNSLRRVDEQWAAFMPYLLLPDSTINSAGNALHISGLSWVTGLDEKPVEGSSEVTDISIASGACLAVRVDWWKRLGGMEELYFMYHEDTDFSARLLLAGGRIGLLHSAYVTHHYDYAKGDYKWIYIERNRHVLLLSVLPLPLLFVLIPQILGVNLGLWAIAAKEKRVGLKVKSLRLLIRDLPAIFKLRRSTQELAELTPSQYLAKMEWRLDNPNLGNIGSNKIVATGYKTYYKLCMSILKLLA”, “failed”. Under “MENDDVMTPPWLTPMLRADYFVTCSIHSQSSKSECNLFCLDCSGNAFCSSCLAHHRTHRVIQIRRSSYHNVVRVSEIQKHIDISCIQTYVINSAKIFFLNARPQCRTGKSLNKTCQICSRNLLDSFLFCSLACKLEGVKNGEDPNLTLFHSGKSDDSSKIINTGICSRLIDGISIAVDDQRSETAGVLSPETPSIESHRNYPMKSRRKGIPQRAPF” stands “failed”.

On to “MIDAQMSERFPARINILAVNSPGSLAEITQVISANDANIQNLSFIRTAPDFTEIMIDLEVWDLKHLNRIFSQLKKAGSVSTVRRGHGLEHHHHHH”, for which the protein production entry was “failed”. The result for “MACFSSLSTGVLDMYDLIIVGGGPSGASAGRVAGKAGISTLLIEKENFPRYKPCGGALSPYALSCLDFKLPEYLIEKDISRIRVHFRELCTEMQKDYSIALLVSRKAFDNFLLDKARETGIDIHSGEKVLDCEEGEECVEVRTSQNTYLAKFVLIAEGSEGVLKYSVRKRKDRRTEYDLALVSEIPERDKVIRKRFPNAIDMHFGIASGGYGWIFPHSEHYSVGIVGTAEHLKHPKAVMQDFLQANGFSGDFQVHSHIIPVGGIKRKTISSRILLSGDAAGFVDAFIGEGISYAIRSGQLAAENVAEIVLYNRKLSDLKEYETSCRKEFGNFLSSSLKLEKAMHRFPETSFRLALSRKEIIDKYLEEVVINRSHKDYVRWLLLNFSLSEPASKIKSIKDKNQLEHHHHHH” reads “failed”.
